The target of this assay is microtubules (MTs) of porcine brain Tubulin (porcine) (UniProt P02550). Kind of assay: turbidimetry.

The text below walks through data of article PMC7321842.

Sequence of LEM2 N-terminal domain (LEM2NTD; AA:1–208) (Q8NC56 1-208): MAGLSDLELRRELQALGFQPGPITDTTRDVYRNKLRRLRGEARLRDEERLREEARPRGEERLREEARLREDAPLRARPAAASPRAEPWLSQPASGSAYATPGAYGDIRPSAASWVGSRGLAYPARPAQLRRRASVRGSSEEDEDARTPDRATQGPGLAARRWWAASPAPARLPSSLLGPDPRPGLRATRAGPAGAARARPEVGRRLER

Consider “LEM2 N-terminal domain (LEM2NTD; AA:1–208) (from UniProt Q8NC56 1-208) (domain or fragment)”, for which the K (apparent) (half-maximal concentration of MT bundling by light scattering) turned out to be 1.3 µM.
With “LEM2_(Mim1(S82D, S90D, S96D, Y98D, T100D, Y104D)) (from UniProt Q8NC56 1-208) (domain or fragment)”, the half max (half-maximal concentration of MT bundling by light scattering) turned out to be 2.82 µM.
Regarding “LEM2_(Mim2(Y122D, S134D, S138D, S139D, T147D, S166D, S174D, S175D)) (from UniProt Q8NC56 1-208) (domain or fragment)”, the half max (half-maximal concentration of MT bundling by light scattering) came to 8.44 µM.
